From article PMC8860610, “The fork protection complex recruits FACT to reorganize nucleosomes during replication” (Nucleic Acids Research, 2022)

How the values were obtained:
Conditions in all cases: both partners purified
[1] = target: T1, full-length (fl) FACT (Spt16-Pob3) (Saccharomyces cerevisiae, UniProt P32558 1-1035; Q04636 1-552); assay: pull-down; 1.5 μM GST fusion proteins (Tof1_N, Tof1_M, Tof1_C, Csm3) as bait on glutathione agarose, 3 μM fl FACT or FACT truncations as prey, 90 min at 4°C, washed with buffer G (300 mM NaCl), eluted with glutathione, SDS-PAGE
T1 construct: Spt16, subunit of FACT, Saccharomyces cerevisiae; Pob3, subunit of FACT, Saccharomyces cerevisiae; His-tag cleaved by TEV protease; also called yFACT when together with Nhp6; source: yeast strain yBS2, galactose-induced, purified (HisTrap, TEV cleavage, Q column, Superdex 200)

[2] = target: T2, Spt16 subunit on its own (Saccharomyces cerevisiae, UniProt P32558 1-1035); assay: as above
T2 construct: Spt16, Saccharomyces cerevisiae, without Pob3; also called Spt16 alone; source: yeast strain yBS2, purified by the same strategy as FACT

[3] = target: T1, full-length (fl) FACT (Spt16-Pob3); assay: pull-down; 1.5 μM CBP-Csm3Tof1 as bait on Calmodulin Affinity Resin, 3 μM fl FACT as prey, 90 min at 4°C, washed with buffer C (25 mM HEPES-NaOH pH 7.6, 300 mM NaCl, 2 mM CaCl2), eluted with EDTA and EGTA, SDS-PAGE
[4] = target: T3, FACT consisting of Spt16 and GST-tagged Pob3 (Saccharomyces cerevisiae, UniProt P32558 1-1035; Q04636 1-552); assay: pull-down; 0.5 μM GST-Pob3Spt16 as bait with 1 μM replisome factor, on ice 30 min, immobilised on glutathione agarose 90 min at 4°C, washed with buffer G (50 mM HEPES-NaOH pH 7.6, 300 mM NaCl, 0.05% NP-40), eluted with glutathione, SDS-PAGE
T3 construct: Spt16, subunit of FACT, Saccharomyces cerevisiae; Pob3, subunit of FACT, Saccharomyces cerevisiae; The methods speak of a His-tag cleaved by TEV protease without telling which subunit carried it; also called GST-Pob3Spt16; GST-tagged Pob3-Spt16; source: yeast strain yBS2, galactose-induced, purified (HisTrap, Q column, Superdex 200)

| Binder | binding result [1] | binding result [2] | binding result [3] | binding result [4] |
| --- | --- | --- | --- | --- |
| GST-tagged Tof1_C (938-1238 aa) (domain or fragment, Saccharomyces cerevisiae, UniProt P53840 938-1238, looked up, Tof1, Saccharomyces cerevisiae, residues 938-1238, codon optimized for bacteria; Cloned into a pET GST-His6-TEV vector; no cleavage is described; source: E. coli BL21 (DE3) codon plus RIL, purified (GSTrap, Q column, Superdex 200)) PSSSYLLRVRSEKDSFSHNEQDGWEGDDDYDYNDPYIVPDDQILSKSDAAYFKDLDNNASDKLKGTKFSKGIARSKKKDKRKRRKGEAKTNLPMFGDQDDERPQTVRERHGVFSKEFISDSEDDEDLMNPIFFENETYMRWLLDKNNGQLTEDRYIQFAKFAAERMNNGGVVTGDYTSLFGGSIPSIESIRATESSSFAPDKSLISLASHVASEMSIFDVNNNNNNQLSDDDVNSESRNSLGSSQPSNSQNMFQSEVYSRKESTKRSLEASAADESDEDEEAIRLFGKKSRVVLSQGDSDD | binds | binds |  |  |
| Tof1-Csm3 (full-length, CBP-tagged) (complex, Saccharomyces cerevisiae, Tof1, subunit of the fork protection complex, Saccharomyces cerevisiae (1238 aa by the printed truncation limits); Csm3, subunit of the fork protection complex, Saccharomyces cerevisiae; also called CBP-Csm3Tof1; CBP-tagged Csm3-Tof1) chain 1: MSADLQQGTTNAADFSLTVLRARIALLATAIGGPDYTSQIDPPPYKLGDDCLACLKDLKRWFKLVDDQQKRWDVAMAVAEYRILTDDLLPILIDWENKCSLAAKLAKNNPDHEEFRNKAYYDKIALNCLQLLVLMTWPLIVTEQSSSNQITLYGELKKHQLVYKKTILSMESGKVLRAAIRLALDVIKIDRLSRTPRDNMVLKLVLNFFRNVIAIEPGEFTINTKKSMPKKGITSIDTLPPNVSMDDISLNTVISSFHKNKVFGFLLTLTSSLSKEFDQDFINIPLLEIMFYFTKDVNQELLFPRQFETGTHSKVVNKNESSSANNIVTSAGFELSKLLQKEHQMRKNVIKHTSARHSRFGGLLSIQTPDKTRLTVSGSQALVDEKIALQKLDDSKKWNKRIIKKHQSVAAEGLPNSLLNSQTGKAIFFTESNGKHFKEFINNFIDSGFNILLHSVTNYFTTEQDRMVTLEQVEYLLFFAWFVKYQLLRSKIDNSADIKQVSEALKEVTFILVSSLLRSAYDLKNWTVTHAGMIAFNELLNLVSRTKAAQEEDSTDIEFIVSRLFSDERIQLLSNLPKIGSKYSLQFMKSCIELTHSVLKVLEQYSDDKTLVIEGKSRRQKKFNISEGDITKLIEEENVDRDEALDILTSSLRSIEVNFQKVQANYMTEPVIETYINFLERFRELEDDSIKKVFSFFHRVFVQAKEQALLFRFDLIILLREMLSPDGLDRMSRSRKYVSQFSDYFLARLKKRLKKSPAWFVGLLFPPLHNSEVGFYQRYGEYNVLNNESMYAAPASQFKPIPDEEALPPSILLDMKYGVLVSTLLDDGKTELLDQLLKHITHTLDIFKSWLTVNVNAGKETVNPPNEYFTLTGVLNNDPIFKDKDYRALLLLIGYSIPRKINEPCFLPGTVEVSDLTVSCELVKKYLSTPFETPNGLPSSSYLLRVRSEKDSFSHNEQDGWEGDDDYDYNDPYIVPDDQILSKSDAAYFKDLDNNASDKLKGTKFSKGIARSKKKDKRKRRKGEAKTNLPMFGDQDDERPQTVRERHGVFSKEFISDSEDDEDLMNPIFFENETYMRWLLDKNNGQLTEDRYIQFAKFAAERMNNGGVVTGDYTSLFGGSIPSIESIRATESSSFAPDKSLISLASHVASEMSIFDVNNNNNNQLSDDDVNSESRNSLGSSQPSNSQNMFQSEVYSRKESTKRSLEASAADESDEDEEAIRLFGKKSRVVLSQGDSDD chain 2: MDQDFDSLLLGFNDSDSVQKDPTVPNGLDGSVVDPTIADPTAITARKRRPQVKLTAEKLLSDKGLPYVLKNAHKRIRISSKKNSYDNLSNIIQFYQLWAHELFPKAKFKDFMKICQTVGKTDPVLREYRVSLFRDEMGMSFDVGTRETGQDLERQSPMVEEHVTSAEERPIVADSFAQDKRNVNNVDYDNDEDDDIYHLSYRNRRGRVLDERGNNETVLNNVVPPKEDLDALLKTFRVQGPVGLEENEKKLLLGWLDAHRKMEKGSMTEEDVQLIQSLEEWEMNDIEGQHTHYDLLPGGDEFGVDQDELDAMKEMGF |  |  | binds | binds |
